Measurements published in patent US20250074980A1 (BRIGHAM AND WOMEN S HOSPITAL, published 2025).

B1: CP08H03/Vκ8 S29A (antibody, IgG4, V domains shown)
VH: EVQLLESGGGLVQPGGSLRLSCAASGFIFSSHGMSWVRQAPGKGLEWVATISSGGTYTYYPDSVKGRFTISRDNSKNTLYLQMNSLKAEDTAMYYCARHDFDYFPYWFAHWGQGTLVTVSS
VL: EIVLTQSPATLSLSPGERATLSCRANSAVSYMYWYQQKPGQAPRPWIYLTSNRATGVPARFSGSGSGTDYTLTISSLEPEDFAVYYCQQWSSNPPTFGQGTKLEIK
notes: IgG4 (S241P), kappa; also called CP08_H03/Parent VL; CP08_H03/Parental
B2: chimeric antibody VH0/Vκ0 (antibody, IgG4, V domains shown)
VH: EVQLVESGGDLVKPGGSLKLACAASGFIFSSHGMSWVRQTPDKRLEWVATISSGGTYTYYPDSVKGRFTISRDNDKNTLYLQMNSLKSEDTAMYYCARHDFDYDAAWFAYWGQGTLVTVSS
VL: QIVLTQSPALMSASPGVKVTMTCSANSSVSYMYWYRQKPRSSPKPWIYLTSNLASGVPARFSGSGSGTSYSLTISSMEAEDAATYYCQQWSSNPPTFGSGTKLEIK
notes: IgG4 (S241P), kappa; also called VH0/Vκ0 (control); Chimeric VH0/Vκ0

Legend:
GST-CEACAM1 = target: T1, GST-CEACAM1 (human, UniProt P13688 35-141, limits assumed); experiment: competition ELISA: binding of human CEACAM1-GST (37.5 µg/ml) to human CEACAM1 IgV domain tagless protein (1 µg/ml), anti-GST detection, OD 450 nm
T1 construct: also called human CEACAM1-GST protein
T1 sequence: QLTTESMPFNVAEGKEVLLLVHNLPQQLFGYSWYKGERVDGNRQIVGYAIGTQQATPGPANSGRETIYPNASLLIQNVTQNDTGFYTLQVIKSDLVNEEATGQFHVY
Experimental: The ability of the CEACAM1 antibodies to block CEACAM1 homodimerization was tested. […] In addition, IgG4 antibody was used as a control (0-1000 nM). Goat polyclonal anti-GST-HSP antibody from Abcam (1:2000) was used and assays were developed by addition of TMB solution (Life technologies). OD values were read at 450 nm on a plate reader. Data was plotted in a Graphpad and best-fit IC-50 values were determined.

[1] = target: T2, CEACAM5 on transfected HeLa cells (human, UniProt P06731 35-685); experiment: flow cytometry titration, HeLa-CEACAM5 transfectants, anti-human IgG4 FITC
T2 construct: whole, on cells; also called HeLa-CEACAM5; HeLa C5
T2 sequence (looked up): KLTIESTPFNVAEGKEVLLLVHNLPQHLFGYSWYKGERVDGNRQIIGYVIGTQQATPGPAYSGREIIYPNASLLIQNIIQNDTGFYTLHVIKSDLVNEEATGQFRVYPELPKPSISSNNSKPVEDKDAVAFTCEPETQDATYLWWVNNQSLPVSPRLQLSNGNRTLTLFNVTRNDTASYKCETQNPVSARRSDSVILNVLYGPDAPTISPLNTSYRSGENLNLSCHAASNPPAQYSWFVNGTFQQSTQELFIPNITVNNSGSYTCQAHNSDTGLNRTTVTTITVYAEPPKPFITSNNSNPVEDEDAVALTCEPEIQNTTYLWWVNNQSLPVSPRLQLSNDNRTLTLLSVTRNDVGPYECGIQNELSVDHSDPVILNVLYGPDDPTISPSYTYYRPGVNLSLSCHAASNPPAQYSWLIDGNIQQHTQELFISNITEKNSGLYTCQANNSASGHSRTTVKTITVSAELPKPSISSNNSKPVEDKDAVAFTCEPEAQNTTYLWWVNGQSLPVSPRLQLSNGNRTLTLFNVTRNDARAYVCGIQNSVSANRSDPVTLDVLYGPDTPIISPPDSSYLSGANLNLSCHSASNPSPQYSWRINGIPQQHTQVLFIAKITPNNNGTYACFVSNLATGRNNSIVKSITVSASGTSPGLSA
Experimental: (§1) FIGS. 31A and 31B show flow cytometry analyses of stable HeLa CEACAM1 (HeLa C1) transfectant, stable HeLa CEACAM3 transfectant (HeLa C3), stable HeLa CEACAM5 transfectant (HeLa C5), stable HeLa CEACAM6 transfectant (HeLa C6), and stable HeLa CEACAM8 transfectant (HeLa C8). FIG. 31A: 5×10\hat{ }4 indicated HeLa transfectants were washed with staining buffer and CP08H03/Vκ8 S29A (labeled “CP08”, left) or CEACAM1 antibody CM-24 was incubated at room temperature for 30 min, washed twice with staining buffer, and stained for anti-human IgG4 Fluorescein isothiocyanate (FITC) conjugated secondary antibody at room temperature for 20 min. Fluorescence intensities were determined by flow cytometry. Live cells were determined by 4′,6-diamidino-2-phenylindole (DAPI) staining as shown on the y-axis. Staining with the respective CEACAM1 antibody is shown on the x-axis. […]
(§2) The cervical adenocarcinoma cell line HeLa (ATCC No CCL-2) as well as transfected cell lines HeLaCEACAM1, HeLaCEACAM3, HeLaCEACAM5, HeLaCEACAM6 and HeLaCEACAM8 used for flow cytometry experiments were cultured at 37° C., 5.0% CO₂ in Dulbecco's modified Eagle's medium supplemented with 10% fetal bovine serum, penicillin (100 U/ml) and dihydrostreptomycin (100 μg/ml). […] Data were acquired with a Cytoflex flow cytometer (Invitrogen) and analyzed with FlowJo software (TreeStar, V7.6.5 for Windows).

[2] = target: T3, CEACAM3 on transfected HeLa cells (human, UniProt P40198 35-252); experiment: flow cytometry titration, HeLa-CEACAM3 transfectants, anti-human IgG4 FITC
T3 construct: whole, on cells; also called HeLa-CEACAM3; HeLa C3
T3 sequence (looked up): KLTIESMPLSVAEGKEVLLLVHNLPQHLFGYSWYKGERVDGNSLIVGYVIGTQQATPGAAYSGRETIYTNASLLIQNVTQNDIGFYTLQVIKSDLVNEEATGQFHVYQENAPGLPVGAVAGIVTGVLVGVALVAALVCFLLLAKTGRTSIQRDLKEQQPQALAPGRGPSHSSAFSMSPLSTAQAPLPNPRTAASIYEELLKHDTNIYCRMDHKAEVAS
Experimental: as §1, §2

[3] = target: T2, CEACAM5 on transfected HeLa cells; experiment: flow cytometry, transfected HeLa

Binder	IC50 (GST-CEACAM1) [nM]	binding result [1]	binding result [2]	relative amount of cells bound [3]
B1	2.11	no binding (tested: 100 ug/ml)	no binding (tested: 100 ug/ml)	–
B2	–	–	–	8.81
